Experimental data as given in patent US12514920B1, “Respiratory syncytial virus mRNA vaccine, and preparation method therefor and use thereof” (Hangzhou Tianlong Pharmaceutical Co., Ltd., priority 2024, dated 2026).

B1: YK-RSV-005 (protein)
chain: QNITEEFYQSTCSAVSKGYLGALRTGWYTSVITIELSNIKENKCNGTDAKVKLIKQELDKYKNAVTDLQLLMQSTPATGSGSAICSGVAVCKVLHLEGEVNKIKSALLSTNKAVVSLSNGVSVLTIKVLDLKNYIDKQLLPIVNKQSCSISPIETVIEFQQKNNRLLEITREFSVNAGVTTPVSTYMLTNSELLSLINDMPITNDQKKLMSNNVQIVRQQSYSIMCIIKEEVLAYVVQLPLYGVIDTPCWKLHTSPLCTTNTKEGSNICLTRTDRGWYCDNAGSVSFFPQAETCKVQSNRVFCDTMNSRTLPSEVNLCNVDIFNPKYDCKIMTSKTDVSSSVITSLGAIVSCYGKTKCTASNKNRGIIKTFSNGCDYVSNKGVDTVSVGNTLYCVNKQEGQSLYVKGEPIINFYDPLVFPSSEFDASISQVNEKINQSLAFIRKSDELLHNVNAGKSTTNIMITTIIIVIIVILLSLIAVGLLLY
B2: YK-RSV-017 (protein)
chain: QNITEEFYQSTCSAVSKGYLGALRTGWYTCVILIELSNIKENKCNGTDAKVKLIKQELDKYKNAVTDLQLLMQSTPATGSGSAICSGVAVSKVLHLEGEVNKIKSALLSTNKAVVSLSNGVSVCTFKVLDLKNYIDKQLLPIVNKQSCSIPNIETVIEFQQKNNRLLEITREFSVNAGVTTPVSTYMLTNSELLSLINDMPITNDQKKLMSNNVQIVRQQSYSIMSIIKEEVLAYVVQLPLYGVIDTPCWKLHTSPLCTTNTKEGSNICLTRTDRGWYCDNAGSVSFFPQAETCKVQSNRVFCDTMNSRTLPSEVNLCNVDIFNPKYDCKIMTSKTDVSSSVITSLGAIVSCYGKTKCTASNKNRGIIKTFSNGCDYVSNKGVDTVSVGNTLYCVNKQEGQSLYVKGEPIINFYDPLVFPSSEFDASISQVNEKINQSLAFIRKSDELLHNVNAGKSTTNIMITTIIIVIIVILLSLIAVGLLLY
B3: YK-RSV-038 (protein)
chain: QNITEEFYQSTCSAVSKGYLGALRTGWYTCVITIELSNIKENKCNGTDAKVKLIKQELDKYKNAVTDLQLLMQSTPATGSGSAIASGVAVSKVLHLEGEVNKIKSALLSTNKAVVSLSNGVCVLTFKVLDLKNYIDKQLLPILNKQSCSIPNIETVIEFQQKNNRLLEITREFSVNAGVTTPVSTYMLTNSELLSLINDMPITNDQKKLMSNNVQIVRQQSYSIMSIIKEEVLAYVVQLPLYGVIDTPCWKLHTSPLCTTNTKEGSNICLTRTDRGWYCDNAGSVSFFPQAETCKVQSNRVFCDTMNSRTLPSEVNLCNVDIFNPKYDCKIMTSKTDVSSSVITSLGAIVSCYGKTKCTASNKNRGIIKTFSNGCDYVSNKGVDTVSVGNTLYYVNKQEGQSLYVKGEPIINFYDPLVFPSDEFDASISQVNEKINQSLAFIRKSDELLHNVNAGKSTTNIMITTIIIVIIVILLSLIAVGLLLY
B4: YK-RSV-056 (protein)
chain: QNITEEFYQSTCSAVSKGYLGALRTGWYTSVITIELSNIKENKCNGTDAKVKLIKQELDKYKNAVTDLQLLMQSTPATGSGSCIASGVAVSKVLHLEGEVNKIKSALLSTNKAVVSLSNGVSVLTFKVLDLKNYIDKQLLPILNKQSCSIPNIETVIEFQQKNNRLLEITREFSVNAGVTTPVSTYMLTNSELLSLINDMPITNDQKKLMSNNVQIVRQQSYCIMSIIKEEVLAYVVQLPLYGVIDTPCWKLHTSPLCTTNTKEGSNICLTRTDRGWYCDNAGSVSFFPQAETCKVQSNRVFCDTMNSRTLPSEVNLCNVDIFNPKYDCKIMTSKTDVSSSVITSLGAIVSCYGKTKCTASNKNRGIIKTFSNGCDYVSNKGVDTVSVGNTLYYVNKQEGQSLYVKGEPIINFYDPLVFPSDEFDASISQVNEKINQSLAFIRKSDELLHNVNAGKSTTNIMITTIIIVIIVILLSLIAVGLLLY

Key:
[1] = test system: RSV pre-F antibody (3C12); experiment: Binding of epitope Φ of RSV F antigen mutants by flow cytometry; settings: for Φ/II (%): ratio of epitope Φ (3C12) to epitope II (11A9) binding rate
Source text: (§1) To investigate whether the RSV F antigen mutants have pre-fusion epitopes, an RSV pre-F antibody (3C12) (specifically binding to the RSV pre-F epitope […]) and an RSV F antibody (11A9) (binding to pre-F and post-F epitopes II) were detected by flow cytometry in this example, and RSV F protein mutants in the pre-F conformation were expected to bind to the antibodies tested.
(§2) • 293T cells (purchased from ATCC cell bank); RSV pre-F antibody (3C12), epitope […] (Novoprotein, Cat. No.: DA101); RSV F antibody (11A9), epitope II (Novoprotein, Cat. No.: DA091); • experimental groups: mRNA vaccines corresponding to the expressed antigens in Example 3;
(§3) • (1) Cell transfection: 293T cells were seeded at 1.3×10^5 cells/well in a 24-well plate. The next day, mRNA-LNP samples (containing 300 ng of mRNA) were added directly to the cells, and the mixture was uniformly mixed. • (2) Cell collection: The cells were taken out of the incubator after 16 h of transfection, the medium was pipetted off, 500 μL of 0.1% BSA solution was pipetted to wash the medium remaining in the well plate, taking care not to resuspend the cells, and the 0.1% BSA solution was pipetted off. 500 μL of 0.1% BSA solution was added to each well, and the cells were pipetted and transferred to a 1.5 mL centrifuge tube. • (3) Centrifugation: The cells were harvested by centrifugation at 400 g for 5 min at 4° C. in the dark, and the supernatant was discarded. • (4) Straining: 50.6 μL of RSV fluorescent antibody diluent was added to each of the control sample and the test samples to resuspend the cells, and the samples were incubated at 4° C. for 2 h in the dark. • (5) Cleaning: After the incubation was completed, 500 μL of 0.1% BSA solution was added to each tube, the cells were harvested by centrifugation at 400 g for 5 min at 4° C. in the dark, and the supernatant was discarded. This operation was repeated three times. • (6) Resuspension of cells: 200 μL of 0.1% BSA solution was added to each sample, and the cells were carefully pipetted to prepare a cell suspension. • (7) Detection on flow cytometer: The […] of RSV F mutants to antibodies were measured using flow cytometry, with 1×10^4 cells detected in each measurement.
(§4) The RSV pre-F antibody (3C12) used in this example specifically binds to the RSV pre-F epitope Φ, and the RSV F antibody (11A9) binds to the pre-F and post-F epitopes II. Whether the pre-fusion conformations of the RSV F mutants are stable can be further determined by detecting the binding of the epitope Φ and the epitope II on the mutants to corresponding epitopes of antibodies 3C12 and 11A9, respectively, by flow cytometry.

RSV F antibody (11A9) = experiment: Binding of epitope II of RSV F antigen mutants by flow cytometry
Source text: as §1, §2, §3, §4

[2] = test system: RSV pre-F antibody (3C12); type: physicochemical; settings: ELISA binding to 3C12; for Stress resistance parameter, Osmotic pressure (mM) 3000: high osmotic pressure 3000 mM; for Stress resistance parameter, Osmotic pressure (mM) 3000 / Stress resistance parameter, Osmotic pressure (mM) 10: room temperature; for Stress resistance parameter, Osmotic pressure (mM) 3000 / Stress resistance parameter, Osmotic pressure (mM) 10 / Stress resistance parameter, pH 3.5 / Stress resistance parameter, pH 10: 60 min; for Stress resistance parameter, Temperature (° C.) 50: incubation at 50° C. for 60 min; for Stress resistance parameter, Osmotic pressure (mM) 10: low osmotic pressure 10 mM; for Stress resistance parameter, pH 3.5: pH 3.5, room temperature; for Stress resistance parameter, pH 10: pH 10, room temperature; for Stress resistance parameter, Temperature (° C.) 4: storage at 4° C. for one week
Source text: To investigate the stability of the RSV F antigen mutants under different pH, temperature, osmotic pressure and other conditions, the mutants were subjected to stress tests under different treatment conditions in this example.
• 293T cells (purchased from ATCC cell bank); • Primary antibody: RSV pre-F antibody (3C12), epitope Φ (purchased from Suzhou Novoprotein Scientific Co., Ltd. (hereinafter referred to as Novoprotein), Cat. No.: DA101); • Standard: RSV pre-F trimer protein (Novoprotein, Cat. No.: DRA230); • Secondary antibody: peroxidase AffiniPure goat anti-human IgG (H+L) (purchased from Yeasen Biotechnology (Shanghai) Co., Ltd. (hereinafter referred to as Yeasen), Cat. No.: N/A); • Experimental group: mRNA vaccines after screening in Example 4;
Coating: A 96-well microplate was coated with a working solution and incubated at 2 to 8° C. for 16 to 20 h.
Plate washing: Phosphate buffered saline PBST was added to each well, and the plate was washed 5 times using a plate washer and patted dry on absorbent paper.
Blocking: After a blocking solution was added, the […] were placed on a constant temperature microplate shaker and incubated at 400 rpm for 1.5 h at 37° C.
Plate washing: PBST was added to each well, and the plate was washed 5 times using a plate washer and patted dry on absorbent paper.
Primary antibody incubation: A primary antibody dilution was added to each well, and the plate was sealed with a sealing film, and then incubated at 400 rpm for 1.5 h at 37° C.
Secondary antibody incubation: A secondary antibody dilution was added to each well, and the plate was sealed with a sealing film, and then incubated at 400 rpm for 45 min at 37° C.
Color development: A chromogenic solution was added, and the plate was sealed with a sealing film, and then placed on a constant temperature microplate shaker and incubated at 400 rpm for 25 min at 37° C.
Reaction stopping: After the color development was completed, a stop buffer was added at […] to the microplate to stop the reaction.
Plate reading: Absorbance values (OD values) were read within 5 min using a multimode microplate reader, with dual wavelengths of 450 nm and 630 nm set.
In this example, stability screening of the mutants through different treatment conditions was defined as a stress test, including storage at 4° C. for one week; incubation at 50° C. for 60 min; treatment at room temperature under low osmotic pressure and high osmotic pressure conditions for 60 min; treatment at room temperature under acid and base conditions for 60 min. The binding of the mutants to the RSV pre-F antibody (3C12) recognizing the epitope Φ was detected by ELISA.

Molecule	RSV pre-F antibody (3C12) Epitope Φ (%) ([1]; binding rate, flow cytometry, 293T cells 16 h after mRNA-LNP transfection)	RSV pre-F antibody (3C12) Epitope Φ (%) binding rate ([1]; flow cytometry, epitope Φ, antibody 3C12) [%]	Φ/II (%) [1] [%]	RSV F antibody (11A9) Epitope II (%) (RSV F antibody (11A9); binding rate, 293T cells 16 h after mRNA-LNP transfection)	RSV F antibody (11A9) Epitope II (%) binding rate (RSV F antibody (11A9); epitope II, antibody 11A9) [%]	Stress resistance parameter, Osmotic pressure (mM) 3000 [2]	Stress resistance parameter, Temperature (° C.) 50 [2]	Stress resistance parameter, Osmotic pressure (mM) 10 [2]	Stress resistance parameter, pH 3.5 [2]	Stress resistance parameter, pH 10 [2]	Stress resistance parameter, Temperature (° C.) 4 [2]
RSVA2 (138251)-wt: wild sequence of RSV A2 F protein, full length (1 to 574 aa) [reference compound]	1.0	1.0	4.3	23.1	23.1	–	–	–	–	–	–
B1	–	–	96.2	–	–	0.47 ± 0.08	0.44 ± 0.06	0.57 ± 0.00	0.64 ± 0.20	0.88 ± 0.14	0.55 ± 0.09
B2	–	–	96.5	–	–	0.46 ± 0.06	0.60 ± 0.04	0.59 ± 0.03	0.76 ± 0.11	0.93 ± 0.06	0.35 ± 0.07
B3	–	–	94.8	–	–	0.55 ± 0.13	0.70 ± 0.10	0.74 ± 0.08	0.88 ± 0.17	0.82 ± 0.26	0.32 ± 0.08
B4	–	–	97.4	–	–	0.44 ± 0.08	0.91 ± 0.09	0.82 ± 0.07	0.64 ± 0.12	0.72 ± 0.14	0.69 ± 0.10
